B1: Protein VAC14 homolog (Homo sapiens), Q08AM6 (parent)
chain: MNPEKDFAPLTPNIVRALNDKLYEKRKVAALEIEKLVREFVAQNNTVQIKHVIQTLSQEFALSQHPHSRKGGLIGLAACSIALGKDSGLYLKELIEPVLTCFNDADSRLRYYACEALYNIVKVARGAVLPHFNVLFDGLSKLAADPDPNVKSGSELLDRLLKDIVTESNKFDLVSFIPLLRERIYSNNQYARQFIISWILVLESVPDINLLDYLPEILDGLFQILGDNGKEIRKMCEVVLGEFLKEIKKNPSSVKFAEMANILVIHCQTTDDLIQLTAMCWMREFIQLAGRVMLPYSSGILTAVLPCLAYDDRKKSIKEVANVCNQSLMKLVTPEDDELDELRPGQRQAEPTPDDALPKQEGTASGGPDGSCDSSFSSGISVFTAASTERAPVTLHLDGIVQVLNCHLSDTAIGMMTRIAVLKWLYHLYIKTPRKMFRHTDSLFPILLQTLSDESDEVILKDLEVLAEIASSPAGQTDDPGPLDGPDLQASHSELQVPTPGRAGLLNTSGTKGLECSPSTPTMNSYFYKFMINLLKRFSSERKLLEVRGPFIIRQLCLLLNAENIFHSMADILLREEDLKFASTMVHALNTILLTSTELFQLRNQLKDLKTLESQNLFCCLYRSWCHNPVTTVSLCFLTQNYRHAYDLIQKFGDLEVTVDFLAEVDKLVQLIECPIFTYLRLQLLDVKNNPYLIKALYGLLMLLPQSSAFQLLSHRLQCVPNPELLQTEDSLKAAPKSQKADSPSIDYAELLQHFEKVQNKHLEVRHQRSGRGDHLDRRVVL
B2: Protein VAC14 homolog (Homo sapiens), Q08AM6 (parent)
chain: B1 chain
partner: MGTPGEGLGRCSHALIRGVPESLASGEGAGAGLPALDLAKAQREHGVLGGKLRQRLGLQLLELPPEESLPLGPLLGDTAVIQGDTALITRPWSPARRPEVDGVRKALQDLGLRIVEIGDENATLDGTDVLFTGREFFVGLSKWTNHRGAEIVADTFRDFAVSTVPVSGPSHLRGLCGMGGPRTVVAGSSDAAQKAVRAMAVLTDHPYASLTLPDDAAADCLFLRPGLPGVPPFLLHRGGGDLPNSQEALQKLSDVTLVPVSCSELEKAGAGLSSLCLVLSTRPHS

Variants of: B1
Conditions: with fnd3b_human FNDC3B
With A127S the “effect of a mutation on the interaction” value was “with no effect”.

Variants of: B1
Conditions: with at2l2_human PHYKPL
In the case of A127S, the “effect of a mutation on the interaction” value is reported as “with no effect”.

Variants of: B1
Conditions: with cd209_human CD209, Q9NNX6
Sequence of cd209_human CD209, Q9NNX6 (Q9NNX6 whole entry): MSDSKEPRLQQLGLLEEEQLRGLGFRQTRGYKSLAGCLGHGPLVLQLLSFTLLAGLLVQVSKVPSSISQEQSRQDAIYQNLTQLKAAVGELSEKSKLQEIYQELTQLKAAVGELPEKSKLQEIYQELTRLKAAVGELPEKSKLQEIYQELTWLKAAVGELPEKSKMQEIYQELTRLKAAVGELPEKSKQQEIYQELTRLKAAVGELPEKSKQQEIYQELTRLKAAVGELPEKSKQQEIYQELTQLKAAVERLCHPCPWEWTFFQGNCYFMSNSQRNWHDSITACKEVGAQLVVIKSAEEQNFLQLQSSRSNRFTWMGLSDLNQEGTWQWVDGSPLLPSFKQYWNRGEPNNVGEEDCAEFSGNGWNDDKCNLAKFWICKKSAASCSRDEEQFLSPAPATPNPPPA
In the case of A127S, the “effect of a mutation on the interaction” value is reported as “with no effect”.

Variants of: B1
Conditions: with myome_human PDE4DIP
In the case of A127S, the “effect of a mutation on the interaction” value is reported as “with no effect”.

Variants of: B1
Conditions: with co8a1_human COL8A1, P27658
Sequence of co8a1_human COL8A1, P27658 (P27658 whole entry): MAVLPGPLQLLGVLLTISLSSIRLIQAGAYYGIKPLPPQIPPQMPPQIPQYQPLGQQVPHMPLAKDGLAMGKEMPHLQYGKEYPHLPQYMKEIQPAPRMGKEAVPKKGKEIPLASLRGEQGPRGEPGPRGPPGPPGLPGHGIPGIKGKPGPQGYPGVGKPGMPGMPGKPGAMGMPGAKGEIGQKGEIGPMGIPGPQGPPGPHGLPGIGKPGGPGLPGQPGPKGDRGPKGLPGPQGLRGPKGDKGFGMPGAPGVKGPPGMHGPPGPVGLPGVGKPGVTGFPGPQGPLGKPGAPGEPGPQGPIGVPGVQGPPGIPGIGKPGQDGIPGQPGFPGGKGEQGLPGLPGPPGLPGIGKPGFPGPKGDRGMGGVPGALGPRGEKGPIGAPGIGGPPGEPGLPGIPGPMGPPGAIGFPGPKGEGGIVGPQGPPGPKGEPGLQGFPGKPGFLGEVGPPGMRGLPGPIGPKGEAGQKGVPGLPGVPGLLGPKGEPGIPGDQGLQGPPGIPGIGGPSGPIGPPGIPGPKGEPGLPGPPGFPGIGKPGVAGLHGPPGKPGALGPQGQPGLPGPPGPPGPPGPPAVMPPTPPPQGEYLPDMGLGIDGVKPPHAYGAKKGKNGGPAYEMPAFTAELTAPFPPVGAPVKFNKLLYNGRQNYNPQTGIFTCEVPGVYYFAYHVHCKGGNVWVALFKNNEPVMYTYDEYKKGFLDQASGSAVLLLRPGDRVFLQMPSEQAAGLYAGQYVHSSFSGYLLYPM
A127S was tested, and the “effect of a mutation on the interaction” value was “with no effect”.

Variants of: B1
Conditions: with znf34_human ZNF34, Q8IZ26
Sequence of znf34_human ZNF34, Q8IZ26 (Q8IZ26 whole entry): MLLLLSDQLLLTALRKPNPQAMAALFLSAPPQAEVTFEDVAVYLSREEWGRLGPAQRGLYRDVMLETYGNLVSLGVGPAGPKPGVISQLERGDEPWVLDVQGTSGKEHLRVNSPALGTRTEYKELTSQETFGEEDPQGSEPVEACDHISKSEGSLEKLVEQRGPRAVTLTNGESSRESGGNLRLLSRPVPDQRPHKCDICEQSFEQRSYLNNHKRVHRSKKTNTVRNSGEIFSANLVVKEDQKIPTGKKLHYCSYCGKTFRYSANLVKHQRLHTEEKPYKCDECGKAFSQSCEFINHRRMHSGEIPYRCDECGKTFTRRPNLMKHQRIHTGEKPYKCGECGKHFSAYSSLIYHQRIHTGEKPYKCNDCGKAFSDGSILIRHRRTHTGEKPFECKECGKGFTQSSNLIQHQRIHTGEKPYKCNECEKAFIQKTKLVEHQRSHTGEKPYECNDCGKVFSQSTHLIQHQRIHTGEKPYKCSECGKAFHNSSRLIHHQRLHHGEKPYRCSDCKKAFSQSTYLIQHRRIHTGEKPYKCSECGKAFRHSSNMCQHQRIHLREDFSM
In the case of A127S, the “effect of a mutation on the interaction” value is reported as “with no effect”.

Variants of: B1
Conditions: with ntaq1_human NTAQ1, Q96HA8
Sequence of ntaq1_human NTAQ1, Q96HA8 (Q96HA8 whole entry): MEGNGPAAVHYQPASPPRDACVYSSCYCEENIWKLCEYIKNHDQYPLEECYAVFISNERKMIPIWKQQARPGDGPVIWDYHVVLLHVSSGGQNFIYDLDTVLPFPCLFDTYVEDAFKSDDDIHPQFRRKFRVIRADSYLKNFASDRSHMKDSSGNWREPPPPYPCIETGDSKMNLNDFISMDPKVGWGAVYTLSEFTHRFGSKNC
A127S was tested, and the “effect of a mutation on the interaction” value was “with no effect”.

Variants of: B1
Conditions: with casp1_human CASP1, P29466
Sequence of casp1_human CASP1, P29466 (P29466 whole entry): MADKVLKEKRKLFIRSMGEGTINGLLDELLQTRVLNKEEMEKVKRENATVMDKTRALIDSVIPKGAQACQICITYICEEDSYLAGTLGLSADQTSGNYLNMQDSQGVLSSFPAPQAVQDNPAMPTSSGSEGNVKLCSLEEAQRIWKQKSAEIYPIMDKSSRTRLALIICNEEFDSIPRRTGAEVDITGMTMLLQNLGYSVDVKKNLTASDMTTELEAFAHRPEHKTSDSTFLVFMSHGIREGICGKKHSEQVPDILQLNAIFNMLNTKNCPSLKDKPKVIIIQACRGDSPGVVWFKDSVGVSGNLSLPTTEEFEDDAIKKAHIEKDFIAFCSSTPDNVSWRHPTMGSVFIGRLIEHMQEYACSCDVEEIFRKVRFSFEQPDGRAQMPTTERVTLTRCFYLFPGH
A127S was tested, and the “effect of a mutation on the interaction” value was “with no effect”.

Variants of: B1
Conditions: with fyv1_human PIKFYVE
In the case of A127S, the “effect of a mutation on the interaction” value is reported as “with no effect”.

Variants of: B2
Conditions: with ddah2_human DDAH2, O95865
A127S was tested, and the “effect of a mutation on the interaction” value was “with no effect”.
